Measured values: the RNAGym collection of RNA variant scans (doi:10.1021/acssynbio.7b00057)

B1: Pistol ribozyme (parent)
chain: GGGUCGUUGUUCCAUAAUCGCGUGGAUAUGGCACGCAAGUUUCUACCGGGCACCGUAAAUGUCCGACUGGAGCCGUUCGGGCGGCUAUAAACAGACCUCAGGCCCGAAGCGUGGCGGCACCUGCCGCCGGUGGUAAAAAAGAUCGGAAGAGCACACGUCU

Variants of: B1
Assay: aptazyme ON/OFF ratio, guanine; higher = stronger switching; co-transcriptional cleavage with and without guanine

Variant	aptazyme ON/OFF ratio
GGGUCGUUAGCUCAUAAUCGCGUGGAUAUGGCACGCAAGUUUCUACCGGGCACCGUAAAUGUCCGACUGGAGCCGUUCGGGCGGCUAUAAACAGACCUCAGGCCCGAAGCGUGGCGGCACCUGCCGCCGGUGGUAAAAAAGAUCGGAAGAGCACACGUCU [G9A U10G U11C C12U]	1.08
GGGUCGUUAGGCGAUAAUCGCGUGGAUAUGGCACGCAAGUUUCUACCGGGCACCGUAAAUGUCCGACUGGAGCCGUUCGGGCGGCUAUAAACAGACCUCAGGCCCGAAGCGUGGCGGCACCUGCCGCCGGUGGUAAAAAAGAUCGGAAGAGCACACGUCU [G9A U10G U11G C13G]	1.14
GGGUCGUUAGGCUAUAAUCGCGUGGAUAUGGCACGCAAGUUUCUACCGGGCACCGUAAAUGUCCGACUGGAGCCGUUCGGGCGGCUAUAAACAGACCUCAGGCCCGAAGCGUGGCGGCACCUGCCGCCGGUGGUAAAAAAGAUCGGAAGAGCACACGUCU [G9A U10G U11G C13U]	1.12
GGGUCGUUAGGCAAUAAUCGCGUGGAUAUGGCACGCAAGUUUCUACCGGGCACCGUAAAUGUCCGACUGGAGCCGUUCGGGCGGCUAUAAACAGACCUCAGGCCCGAAGCGUGGCGGCACCUGCCGCCGGUGGUAAAAAAGAUCGGAAGAGCACACGUCU [G9A U10G U11G C13A]	1.2
GGGUCGUUAUAUCAUAAUCGCGUGGAUAUGGCACGCAAGUUUCUACCGGGCACCGUAAAUGUCCGACUGGAGCCGUUCGGGCGGCUAUAAACAGACCUCAGGCCCGAAGCGUGGCGGCACCUGCCGCCGGUGGUAAAAAAGAUCGGAAGAGCACACGUCU [G9A U11A C12U]	1.83
GGGUCGUUAUAACAUAAUCGCGUGGAUAUGGCACGCAAGUUUCUACCGGGCACCGUAAAUGUCCGACUGGAGCCGUUCGGGCGGCUAUAAACAGACCUCAGGCCCGAAGCGUGGCGGCACCUGCCGCCGGUGGUAAAAAAGAUCGGAAGAGCACACGUCU [G9A U11A C12A]	1.68
GGGUCGUUAUAGCAUAAUCGCGUGGAUAUGGCACGCAAGUUUCUACCGGGCACCGUAAAUGUCCGACUGGAGCCGUUCGGGCGGCUAUAAACAGACCUCAGGCCCGAAGCGUGGCGGCACCUGCCGCCGGUGGUAAAAAAGAUCGGAAGAGCACACGUCU [G9A U11A C12G]	1.51
GGGUCGUUAUACCAUAAUCGCGUGGAUAUGGCACGCAAGUUUCUACCGGGCACCGUAAAUGUCCGACUGGAGCCGUUCGGGCGGCUAUAAACAGACCUCAGGCCCGAAGCGUGGCGGCACCUGCCGCCGGUGGUAAAAAAGAUCGGAAGAGCACACGUCU [G9A U11A]	2.53
GGGUCGUUAGCCUAUAAUCGCGUGGAUAUGGCACGCAAGUUUCUACCGGGCACCGUAAAUGUCCGACUGGAGCCGUUCGGGCGGCUAUAAACAGACCUCAGGCCCGAAGCGUGGCGGCACCUGCCGCCGGUGGUAAAAAAGAUCGGAAGAGCACACGUCU [G9A U10G U11C C13U]	1.09
GGGUCGUUAGCCAAUAAUCGCGUGGAUAUGGCACGCAAGUUUCUACCGGGCACCGUAAAUGUCCGACUGGAGCCGUUCGGGCGGCUAUAAACAGACCUCAGGCCCGAAGCGUGGCGGCACCUGCCGCCGGUGGUAAAAAAGAUCGGAAGAGCACACGUCU [G9A U10G U11C C13A]	1.16
GGGUCGUUAGCCGAUAAUCGCGUGGAUAUGGCACGCAAGUUUCUACCGGGCACCGUAAAUGUCCGACUGGAGCCGUUCGGGCGGCUAUAAACAGACCUCAGGCCCGAAGCGUGGCGGCACCUGCCGCCGGUGGUAAAAAAGAUCGGAAGAGCACACGUCU [G9A U10G U11C C13G]	1.12
GGGUCGUUAUAGUAUAAUCGCGUGGAUAUGGCACGCAAGUUUCUACCGGGCACCGUAAAUGUCCGACUGGAGCCGUUCGGGCGGCUAUAAACAGACCUCAGGCCCGAAGCGUGGCGGCACCUGCCGCCGGUGGUAAAAAAGAUCGGAAGAGCACACGUCU [G9A U11A C12G C13U]	1.41
GGGUCGUUAUAGGAUAAUCGCGUGGAUAUGGCACGCAAGUUUCUACCGGGCACCGUAAAUGUCCGACUGGAGCCGUUCGGGCGGCUAUAAACAGACCUCAGGCCCGAAGCGUGGCGGCACCUGCCGCCGGUGGUAAAAAAGAUCGGAAGAGCACACGUCU [G9A U11A C12G C13G]	1.2
GGGUCGUUAUAGAAUAAUCGCGUGGAUAUGGCACGCAAGUUUCUACCGGGCACCGUAAAUGUCCGACUGGAGCCGUUCGGGCGGCUAUAAACAGACCUCAGGCCCGAAGCGUGGCGGCACCUGCCGCCGGUGGUAAAAAAGAUCGGAAGAGCACACGUCU [G9A U11A C12G C13A]	1.39
GGGUCGUUAGGAAAUAAUCGCGUGGAUAUGGCACGCAAGUUUCUACCGGGCACCGUAAAUGUCCGACUGGAGCCGUUCGGGCGGCUAUAAACAGACCUCAGGCCCGAAGCGUGGCGGCACCUGCCGCCGGUGGUAAAAAAGAUCGGAAGAGCACACGUCU [G9A U10G U11G C12A C13A]	1.19
GGGUCGUUAGGAGAUAAUCGCGUGGAUAUGGCACGCAAGUUUCUACCGGGCACCGUAAAUGUCCGACUGGAGCCGUUCGGGCGGCUAUAAACAGACCUCAGGCCCGAAGCGUGGCGGCACCUGCCGCCGGUGGUAAAAAAGAUCGGAAGAGCACACGUCU [G9A U10G U11G C12A C13G]	1.13
GGGUCGUUAGGAUAUAAUCGCGUGGAUAUGGCACGCAAGUUUCUACCGGGCACCGUAAAUGUCCGACUGGAGCCGUUCGGGCGGCUAUAAACAGACCUCAGGCCCGAAGCGUGGCGGCACCUGCCGCCGGUGGUAAAAAAGAUCGGAAGAGCACACGUCU [G9A U10G U11G C12A C13U]	1.25
GGGUCGUUAGCUUAUAAUCGCGUGGAUAUGGCACGCAAGUUUCUACCGGGCACCGUAAAUGUCCGACUGGAGCCGUUCGGGCGGCUAUAAACAGACCUCAGGCCCGAAGCGUGGCGGCACCUGCCGCCGGUGGUAAAAAAGAUCGGAAGAGCACACGUCU [G9A U10G U11C C12U C13U]	1.4
